Residue numbers refer to the chain shown, from its start. Like-named read-outs stand apart in the source and are kept apart here.

Assay in all cases: SPR
In general terms: In SPR one partner is held on a chip, and binding of the other changes the refractive index at the surface.

In experiment [1] the target is T1, GBP1 GTPase (human GBP1, recombinant wild type) (human, UniProt P32455 1-592).
T1 sequence (looked up): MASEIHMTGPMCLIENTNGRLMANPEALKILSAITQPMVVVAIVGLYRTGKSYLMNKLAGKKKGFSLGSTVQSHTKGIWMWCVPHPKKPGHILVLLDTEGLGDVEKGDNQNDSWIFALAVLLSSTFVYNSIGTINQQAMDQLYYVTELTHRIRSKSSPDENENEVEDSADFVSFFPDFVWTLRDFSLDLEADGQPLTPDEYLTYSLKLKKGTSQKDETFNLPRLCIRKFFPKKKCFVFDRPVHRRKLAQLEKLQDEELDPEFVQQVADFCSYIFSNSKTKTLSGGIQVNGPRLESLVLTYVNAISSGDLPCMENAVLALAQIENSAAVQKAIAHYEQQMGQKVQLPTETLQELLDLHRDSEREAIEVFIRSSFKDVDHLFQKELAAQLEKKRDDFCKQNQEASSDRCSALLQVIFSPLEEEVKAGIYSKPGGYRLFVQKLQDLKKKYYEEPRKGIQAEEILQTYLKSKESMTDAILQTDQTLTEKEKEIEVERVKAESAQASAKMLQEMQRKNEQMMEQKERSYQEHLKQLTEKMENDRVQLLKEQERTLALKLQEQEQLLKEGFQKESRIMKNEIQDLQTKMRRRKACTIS

The target of experiment [2] is T2, GBP1 mutant D184A (human, UniProt P32455 1-592, D184A).
T2 sequence (looked up): T1 sequence (looked up) with D184A

For experiment [3], the target named is T3, GBP1 mutant Q72A (human, UniProt P32455 1-592, Q72A).
T3 sequence (looked up): T1 sequence (looked up) with Q72A

Experiment [4] addresses T4, GBP1 mutant D103N (human, UniProt P32455 1-592, D103N).
T4 sequence (looked up): T1 sequence (looked up) with D103N

In experiment [5] the target is T1, GBP1 GTPase (human GBP1, recombinant …). This is another data set of the same source.

B1: PIM1 (recombinant) (enzyme)
chain: not shown
As to B1, the Kd (as a rule, the constant that tells how readily two partners part at equilibrium) in experiment [1] is 30 ± 10 nM; in experiment [2] it was 77 ± 3 nM; in experiment [3] it was 161 ± 17 nM; in experiment [4] it was 15 ± 0.1 nM; in experiment [5] it was 38 ± 14 nM.

For the origin of these results see publication PMC4191604 (Journal of Medicinal Chemistry, 2014).
